Results reported in CN1827647A (SHANGHAI ZHANGJIANG BIO TECH C, dated 2006).

Molecular target: T1, EGFR蛋白 (表皮生长因子受体, 购自晶美生物公司) (UniProt P00533 25-645, limits assumed)
T1 construct: Bought protein used as the coating antigen; also called c-erbB1/Her1
Test: Scatchard analysis; concluding sentence on the result

B1: 3C6单克隆抗体 (重组人源抗EGFR单克隆抗体, produced by CHO cell line 3C6) (antibody, V domains shown)
VH: QVQLKESGPGLVAPSQSLSITCTVSGFSLTNYGVHWVRQPPGKGLEWLGVIWSGGNTDYNTPFTSRLNISKDNSKSQVFLRMYSLQTDDTARYYCARALTYYDYEFAYWGQGTLVTVSS
VL: not shown
Kd: ~1 nM
